B1: Cas2/3 (fusion of Cas2 to the Cas3 nuclease/helicase, type I-F, Pseudomonas aeruginosa PA14) (enzyme)
chain: MNILLVSQCEKRALSETRRILDQFAERRGERTWQTPITQAGLDTLRRLLKKSARRNTAVACHWIRGRDHSELLWIVGDASRFNAQGAVPTNRTCRDILRKEDENDWHSAEDIRLLTVMAALFHDIGKASQAFQAKLRNRGKPMADAYRHEWVSLRLFEAFVGPGSSDEDWLRRLADKRETGDAWLSQLARDDRQSAPPGPFQKSRLPPLAQAVGWLIVSHHRLPNGDHRGSASLARLPAPIQSQWCGARDADAKEKAACWQFPHGLPFASAHWRARTALCAQSMLERPGLLARGPALLHDSYVMHVSRLILMLADHHYSSLPADSRLGDPNFPLHANTDRDSGKLKQRLDEHLLGVALHSRKLAGTLPRLERQLPRLARHKGFTRRVEQPRFRWQDKAYDCAMACREQAMEHGFFGLNLASTGCGKTLANGRILYALADPQRGARFSIALGLRSLTLQTGQAYRERLGLGDDDLAILVGGSAARELFEKQQERLERSGSESAQELLAENSHVHFAGTLEDGPLREWLGRNSAGNRLLQAPILACTIDHLMPASESLRGGHQIAPLLRLMTSDLVLDEVDDFDIDDLPALSRLVHWAGLFGSRVLLSSATLPPALVQGLFEAYRSGREIFQRHRGAPGRATEIRCAWFDEFSSQSSAHGAVTSFSEAHATFVAQRLAKLEQLPPRRQAQLCTVHAAGEARPALCRELAGQMNTWMADLHRCHHTEHQGRRISFGLLRLANIEPLIELAQAILAQGAPEGLHVHLCVYHSRHPLLVRSAIERQLDELLKRSDDDAAALFARPTLAKALQASTERDHLFVVLASPVAEVGRDHDYDWAIVEPSSMRSIIQLAGRIRRHRSGFSGEANLYLLSRNIRSLEGQNPAFQRPGFETPDFPLDSHDLHDLLDPALLARIDASPRIVEPFPLFPRSRLVDLEHRRLRALMLADDPPSSLLGVPLWWQTPASLSGALQTSQPFRAGAKERCYALLPDEDDEERLHFSRYEEGTWSNQDNLLRNLDLTYGPRIQTWGTVNYREELVAMAGREDLDLRQCAMRYGEVRLRENTQGWSYHPYLGFKKYN
B2: Cas1 (type I-F, Pseudomonas aeruginosa PA14) (enzyme)
chain: MDDISPSELKTILHSKRANLYYLQHCRVLVNGGRVEYVTDEGRHSHYWNIPIANTTSLLLGTGTSITQAAMRELARAGVLVGFCGGGGTPLFSANEVDVEVSWLTPQSEYRPTEYLQRWVGFWFDEEKRLVAARHFQRARLERIRHSWLEDRVLRDAGFAVDATALAVAVEDSARALEQAPNHEHLLTEEARLSKRLFKLAAQATRYGEFVRAKRGSGGDPANRFLDHGNYLAYGLAATATWVLGIPHGLAVLHGKTRRGGLVFDVADLIKDSLILPQAFLSAMRGDEEQDFRQACLDNLSRAQALDFMIDTLKDVAQRSTVSA

Biological target: the molecule itself
Assay: cryo-EM structure

Row | Protein | binding result
1 | B1 | binds
2 | B2 | binds

— publication doi:10.1101/2023.05.26.542337 (bioRxiv, 2023)
